Experimental data reported in patent US20220145339A1, “METHOD FOR PREPARATION OF PRIMARY AMINE COMPOUNDS” (Max-Planck-Gesellschaft zur Förderung der Wissenschaften …, priority 2018, published 2022).

Assays:
[1] = aqueous solution, hydrolyzes to oxaloacetate; calculated from data of Mortarino et al., 1996; cited from earlier work
[2] = biological target: the molecule itself; assay: X-ray crystal structure, self-association (homodimer)
[3] = ISRed enzyme assay coupled with BHAD, NADH oxidation followed at 340 nm; format: biochemical, Paracoccus denitrificans DSM 413
Protocol: The enzyme assay to generate aspartate from β-hydroxyaspartate (catalyzed by the BHAD and ISRed enzymes) was performed at 30° C. in a total volume of 300 μl. The reaction mixture contained 100 mM potassium phosphate pH 7.5, 1 mM BHA, 0.2 mM NADH, 0.57, 2.85, 5.7 or 11.4 μg BHAD enzyme and 0.57 μg ISRed enzyme. The oxidation of NADH was followed at 340 nm on a Cary 60 UV-Vis photospectrometer (Agilent) in quartz cuvettes with a pathlength of 10 mm (Hellma Analytics). BHA (=(2R,3S)-β-hydroxyaspartate) was custom-synthesized by the company NewChem (Newcastle upon Tyne, United Kingdom), and was determined to be >95% pure by NMR analysis.
The enzyme assay to determine the initial reaction velocity of the ISRed enzymes was performed by incubating BHA and the required cofactor NADH together with a fixed amount of the ISRed enzyme and varying amounts of the BHAD enzyme. The initial velocity depends on the amount of the BHAD enzyme present in the reaction mixture, and therefore on the amount of iminosuccinate that is produced by the BHAD enzyme and is available to the ISRed enzyme, as illustrated in FIG. 6. The initial reaction velocity of the ISRed enzyme approaches a maximum in a Michaelis-Menten kinetic fit. The preliminary vmax of the ISRed enzyme determined by this method is 270±10 U mg^−1.

N=C(CC(=O)O)C(=O)O [iminosuccinate]
t1/2 [1]: 1.48 s

B1: iminosuccinate reductase from Paracoccus denitrificans DSM 413 (enzyme)
chain: MLVVAEKEIAGLMTPEAAFEAIEAVFASMARRKAYNFPVVREAIGHEDALYGFKGGFDASALVLGLKAGGYWPNNQKHNLINHQSTVFLFDPDTGRVSAAVGGNLLTALRTAAASAVSIKYLAPKGAKVLGMIGAGHQSAFQMRAAANVHRFEKVIGWNPHPEMLSRLADTAAELGLPFEAVELDRLGAEADVIVSITSSFSPLLMNEHVKGPTHIAAMGTDTKGKQELDPALVARARIFTDEVAQSVSIGECQHAIAAGLIREDQVGELGAVVAGDDPGRGDAEVTIFDGTGVGLQDLAVAQAVVELAKHKGVAQEVEI
notes: Recombinant enzyme expressed in E. coli BL21 AI from pET16b and purified on Ni-NTA; It was crystallised, soaked with NAD+, and is described as a homodimer (PDB ID 6QKH); also called ISRed; IRed; not shown: N-terminal His tag and Factor Xa site from vector pET16b
binding result [2]: binds

B2: ISRed: imine reductase enzyme from Paracoccus denitrificans DSM 413, amino acid sequence SEQ ID NO: 434, expressed in E. coli (protein)
chain: MLVVAEKEIAGLMTPEAAFEAIEAVFASMARRKAYNFPVVREAIGHEDALYGFKGGFDASALVLGLKAGGYWPNNQKHNLINHQSTVFLFDPDTGRVSAAVGGNLLTALRTAAASAVSIKYLAPKGAKVLGMIGAGHQSAFQMRAAANVHRFEKVIGWNPHPEMLSRLADTAAELGLPFEAVELDRLGAEADVIVSITSSFSPLLMNEHVKGPTHIAAMGTDTKGKQELDPALVARARIFTDEVAQSVSIGECQHAIAAGLIREDQVGELGAVVAGDDPGRGDAEVTIFDGTGVGLQDLAVAQAVVELAKHKGVAQEVEI
modifications: Paracoccus denitrificans DSM 413
reaction catalyzed ([3]; 1 mM BHA, 0.2 mM NADH, BHAD and ISRed enzymes, 30° C., potassium phosphate pH 7.5): catalyzes the conversion of iminosuccinate into L-aspartate
vmax ([3]; iminosuccinate synthesized in situ from BHA with varying amounts of BHAD enzyme, cofactor NADH, Michaelis-Menten fit, preliminary, n=1): 270±10 U mg^−1
